Measurements taken from publication PMC8162780.

Columns and labels:
[1] = substrate: CCOCC(O)CO; test: purified protein; type: biochemical, Geobacillus stearothermophilus; details: 1 mM NAD+, 100 mM sodium phosphate pH 7, 30 °C, free enzyme
[2] = substrate: OCC(O)CO; test: purified protein; type: biochemical, Geobacillus stearothermophilus; details: 1 mM NAD+, 100 mM sodium phosphate pH 7, 30 °C, free enzyme
[3] = substrate: OCC(O)COCC(F)(F)F; test: purified protein; type: biochemical, Geobacillus stearothermophilus; details: 1 mM NAD+, 100 mM sodium phosphate pH 7, 30 °C, free enzyme
[4] = substrate: OCC(O)COc1ccccc1; test: purified protein; type: biochemical, Geobacillus stearothermophilus; details: 1 mM NAD+, 100 mM sodium phosphate pH 7, 30 °C, free enzyme
[5] = substrate: OCC(O)COc1ccccc1; test: purified protein, by the assay type; details: 30.0 °C

B1: BsGlyDH (GlyDH from Bacillus stearothermophilus) (Geobacillus stearothermophilus) (protein)
chain: MAAERVFISPAKYVQGKNVITKIANYLEGIGNKTVVIADEIVWKIAGHTIVNELKKGNIAAEEVVFSGEASRNEVERIANIARKAEAAIVIGVGGGKTLDTAKAVADELDAYIVIVPTAASTDAPTSALSVIYSDDGVFESYRFYKKNPDLVLVDTKIIANAPPRLLASGIADALATWVEARSVIKSGGKTMAGGIPTIAAEAIAEKCEQTLFKYGKLAYESVKAKVVTPALEAVVEANTLLSGLGFESGGLAAAHAIHNGFTALEGEIHHLTHGEKVAFGTLVQLALEEHSQQEIERYIELYLSLDLPVTLEDIKLKDASREDILKVAKAATAEGETIHNAFNVTADDVADAIFAADQYAKAYKEKHRK
[1]
  Km: 13.4 ± 0.4 mM
  Vmax: 0.036 µmol/min/mg
  kcat: 0.19 ± 0.003 s⁻¹
  kcat/Km: 14 M⁻¹ s⁻¹
[2]
  Km: 50 ± 3 mM
  Vmax: 1.4 µmol/min/mg
  kcat: 7.4 ± 0.2 s⁻¹
  kcat/Km: 148 M⁻¹ s⁻¹
[3]
  Km: 78 ± 8 mM
  Vmax: 0.06 µmol/min/mg
  kcat: 0.32 ± 0.01 s⁻¹
  kcat/Km: 4 M⁻¹ s⁻¹
[4]
  Km: 7 ± 2 mM
  Vmax: 0.14 µmol/min/mg
  kcat: 0.7 ± 0.1 s⁻¹
  kcat/Km: 112 M⁻¹ s⁻¹
[5]
  Km: 6.6 mM
